# Data taken from article PMC7949108, “Medulloblastoma-associated mutations in the DEAD-box RNA helicase DDX3X/DED1 cause specific defects in translation”.
# Columns and labels:
# Test in all cases: fluorescence anisotropy; 2 mM ADP-BeFx; 20 mM HEPES pH 7.5, 40 mM NaCl, 20% glycerol, 2 mM ADP-BeFx; 2 nM RNA, 0-400 nM protein, 30 min; temperature not stated
# Details in all cases: protein: recombinant; tags: His (pET28a); label: 5' 6-carboxyfluorescein; single strand
# Ded1 wild-type = Ded1 wild-type (Saccharomyces cerevisiae, UniProt P06634 1-604)
# Sequence of Ded1 wild-type (P06634 whole entry): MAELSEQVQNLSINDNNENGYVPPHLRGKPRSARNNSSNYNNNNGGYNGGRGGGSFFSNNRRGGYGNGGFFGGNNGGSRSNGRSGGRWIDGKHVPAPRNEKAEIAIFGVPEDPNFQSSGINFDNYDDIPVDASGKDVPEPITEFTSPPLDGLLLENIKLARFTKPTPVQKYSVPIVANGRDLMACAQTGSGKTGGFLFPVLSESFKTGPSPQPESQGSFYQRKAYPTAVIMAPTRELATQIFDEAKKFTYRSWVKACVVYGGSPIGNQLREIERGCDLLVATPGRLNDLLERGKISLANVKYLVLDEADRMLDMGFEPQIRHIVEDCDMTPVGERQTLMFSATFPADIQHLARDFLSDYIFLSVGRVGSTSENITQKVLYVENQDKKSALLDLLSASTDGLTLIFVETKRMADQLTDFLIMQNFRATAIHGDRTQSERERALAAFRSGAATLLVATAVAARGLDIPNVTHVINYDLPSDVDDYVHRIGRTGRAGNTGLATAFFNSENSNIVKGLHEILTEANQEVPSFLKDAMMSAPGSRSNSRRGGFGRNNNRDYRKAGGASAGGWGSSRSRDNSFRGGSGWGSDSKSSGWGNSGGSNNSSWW
# Ded1-S371F = Ded1-S371F (Saccharomyces cerevisiae, UniProt P06634 1-604, S371F)
# Sequence of Ded1-S371F (P06634 whole entry S371F): as the sequence (P06634 whole entry) above, with S371F counted along it
# Ded1-G488A = Ded1-G488A (Saccharomyces cerevisiae, UniProt P06634 1-604, G488A)
# Sequence of Ded1-G488A (P06634 whole entry G488A): as the sequence (P06634 whole entry) above, with G488A counted along it
# Ded1-M339I = Ded1-M339I (Saccharomyces cerevisiae, UniProt P06634 1-604, M339I)
# Sequence of Ded1-M339I (P06634 whole entry M339I): as the sequence (P06634 whole entry) above, with M339I counted along it
binder,measurement,setting,value
AGCACCGUAAAGACGC (ssRNA) [16-mer RNA oligomer],Kd,Ded1 wild-type,13 nM
same,Kd,Ded1-S371F,11 nM
same,Kd,Ded1-G488A,78 nM
same,Kd,Ded1-M339I,110 nM
